Experimental findings from the supplement of paper PMC5998384 are described below.

In data set [1] the test system is HeLa Kyoto. Kind of data set: solubility change mitosis vs G1/S (difference of NP-40 vs SDS log2 ratios) (log2 ratio difference); higher = more soluble in mitosis.
Data set [2] has as its system HeLa Kyoto. Kind of data set: thermal stability score vs G1/S (z-score of summed log2 fold changes over temperatures); higher = more thermally stable than in G1/S.
In data set [3] the test system is HeLa Kyoto. The data set can be described thus: solubility in G1/S (NP-40 vs SDS abundance) (log2 ratio); higher = more soluble. Particulars: cell cycle stage: G1/S.
The test system of data set [4] is HeLa Kyoto. Kind of data set: melting temperature (median over replicates), in situ; higher = more thermally stable.
The mark [5] stands for this setting: cell cycle stage: early G1 (4.5 h after nocodazole release).
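Wherever melting temperature (median over replicates), in situ is given: HeLa Kyoto cells synchronized by double thymidine or nocodazole block, proteins quantified by TMT10plex mass spectrometry, three independent biological replicates.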
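Wherever solubility change mitosis vs G1/S (difference of NP-40 vs SDS log2 ratios) is given: synchronized HeLa Kyoto cells (double thymidine block for G1/S, nocodazole release for mitosis), protein amounts in NP-40 versus SDS lysates quantified by mass spectrometry, three biological replicates.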
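Wherever solubility in G1/S (NP-40 vs SDS abundance) is given: HeLa Kyoto cells arrested at G1/S by double thymidine block, proteins quantified by TMT10plex mass spectrometry in mild NP-40 versus SDS extracts, three biological replicates.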
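Wherever thermal stability score vs G1/S (z-score of summed log2 fold changes over temperatures) is given: synchronized HeLa Kyoto cells, proteins quantified by TMT10plex mass spectrometry, three biological replicates, mitosis taken 0.5 h after nocodazole release, G1/S directly after double thymidine block.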

On to “MGDMANNSVAYSGVKNSLKEANHDGDFGITLAELRALMELRSTDALRKIQESYGDVYGICTKLKTSPNEGLSGNPADLERREAVFGKNFIPPKKPKTFLQLVWEALQDVTLIILEIAAIVSLGLSFYQPPEGDNALCGEVSVGEEEGEGETGWIEGAAILLSVVCVVLVTAFNDWSKEKQFRGLQSRIEQEQKFTVIRGGQVIQIPVADITVGDIAQVKYGDLLPADGILIQGNDLKIDESSLTGESDHVKKSLDKDPLLLSGTHVMEGSGRMVVTAVGVNSQTGIIFTLLGAGGEEEEKKDEKKKEKKNKKQDGAIENRNKAKAQDGAAMEMQPLKSEEGGDGDEKDKKKANLPKKEKSVLQGKLTKLAVQIGKAGLLMSAITVIILVLYFVIDTFWVQKRPWLAECTPIYIQYFVKFFIIGVTVLVVAVPEGLPLAVTISLAYSVKKMMKDNNLVRHLDACETMGNATAICSDKTGTLTMNRMTVVQAYINEKHYKKVPEPEAIPPNILSYLVTGISVNCAYTSKILPPEKEGGLPRHVGNKTECALLGLLLDLKRDYQDVRNEIPEEALYKVYTFNSVRKSMSTVLKNSDGSYRIFSKGASEIILKKCFKILSANGEAKVFRPRDRDDIVKTVIEPMASEGLRTICLAFRDFPAGEPEPEWDNENDIVTGLTCIAVVGIEDPVRPEVPDAIKKCQRAGITVRMVTGDNINTARAIATKCGILHPGEDFLCLEGKDFNRRIRNEKGEIEQERIDKIWPKLRVLARSSPTDKHTLVKGIIDSTVSDQRQVVAVTGDGTNDGPALKKADVGFAMGIAGTDVAKEASDIILTDDNFTSIVKAVMWGRNVYDSISKFLQFQLTVNVVAVIVAFTGACITQDSPLKAVQMLWVNLIMDTLASLALATEPPTESLLLRKPYGRNKPLISRTMMKNILGHAFYQLVVVFTLLFAGEKFFDIDSGRNAPLHAPPSEHYTIVFNTFVLMQLFNEINARKIHGERNVFEGIFNNAIFCTIVLGTFVVQIIIVQFGGKPFSCSELSIEQWLWSIFLGMGTLLWGQLISTIPTSRLKFLKEAGHGTQKEEIPEEELAEDVEEIDHAERELRRGQILWFRGLNRIQTQIRVVNAFRSSLYEGLEKPESRSSIHNFMTHPEFRIEDSEPHIPLIDDTDAEDDAPTKRNSSPPPSPNKNNNAVDSGIHLTIEMNKSATSSSPGSPLHSLETSL [ATP2B1]”, for which the “solubility change mitosis (log2)” value in the data set with HeLa Kyoto [1] is -0.103. The figures for the thermal stability score in the data set with HeLa Kyoto [2] (setting [5]) and in the data set with HeLa Kyoto [2] (cell cycle stage: mitosis) were 0.336 and 1.72, respectively. The “solubility in G1/S (log2)” value with HeLa Kyoto [3] was -0.179. Further, the figures for the melting temperature in the data set on HeLa Kyoto [4] (cell cycle stage: G1/S) and in the data set on HeLa Kyoto [4] (cell cycle stage: mitosis) were 54.1 °C and 53.4 °C, respectively.
Regarding “MGDMKTPDFDDLLAAFDIPDIDANEAIHSGPEENEGPGGPGKPEPGVGSESEDTAAASAGDGPGVPAQASDHGLPPPDISVVSVIVKNTVCPEQSEALAGGSAGDGAQAAGVTKEGPVGPHRMQNGFGSPEPSLPGTPHSPAPPSGGTWKEKGMEGKTPLDLFAHFGPEPGDHSDPLPPSAPSPTREGALTPPPFPSSFELAQENGPGMQPPVSSPPLGALKQESCSPHHPQVLAQQGSGSSPKATDIPASASPPPVAGVPFFKQSPGHQSPLASPKVPVCQPLKEEDDDEGPVDKSSPGSPQSPSSGAEAADEDSNDSPASSSSRPLKVRIKTIKTSCGNITRTVTQVPSDPDPPAPLAEGAFLAEASLLKLSPATPTSEGPKVVSVQLGDGTRLKGTVLPVATIQNASTAMLMAASVARKAVVLPGGTATSPKMIAKNVLGLVPQALPKADGRAGLGTGGQKVNGASVVMVQPSKTATGPSTGGGTVISRTQSSLVEAFNKILNSKNLLPAYRPNLSPPAEAGLALPPTGYRCLECGDAFSLEKSLARHYDRRSMRIEVTCNHCARRLVFFNKCSLLLHAREHKDKGLVMQCSHLVMRPVALDQMVGQPDITPLLPVAVPPVSGPLALPALGKGEGAITSSAITTVAAEAPVLPLSTEPPAAPATSAYTCFRCLECKEQCRDKAGMAAHFQQLGPPAPGATSNVCPTCPMMLPNRCSFSAHQRMHKNRPPHVCPECGGNFLQANFQTHLREACLHVSRRVGYRCPSCSVVFGGVNSIKSHIQTSHCEVFHKCPICPMAFKSGPSAHAHLYSQHPSFQTQQAKLIYKCAMCDTVFTHKPLLSSHFDQHLLPQRVSVFKCPSCPLLFAQKRTMLEHLKNTHQSGRLEETAGKGAGGALLTPKTEPEELAVSQGGAAPATEESSSSSEEEEVPSSPEPPRPAKRPRRELGSKGLKGGGGGPGGWTCGLCHSWFPERDEYVAHMKKEHGKSVKKFPCRLCERSFCSAPSLRRHVRVNHEGIKRVYPCRYCTEGKRTFSSRLILEKHVQVRHGLQLGAQSPGRGTTLARGSSARAQGPGRKRRQSSDSCSEEPDSTTPPAKSPRGGPGSGGHGPLRYRSSSSTEQSLMMGLRVEDGAQQCLDCGLCFASPGSLSRHRFISHKKRRGVGKASALGLGDGEEEAPPSRSDPDGGDSPLPASGGPLTCKVCGKSCDSPLNLKTHFRTHGMAFIRARQGAVGDN [ZNF687]”, in the data set with HeLa Kyoto [1], the “solubility change mitosis (log2)” value was found to be 0.08. In addition, the thermal stability score with HeLa Kyoto [2] (setting [5]) is 0.612; in the data set with HeLa Kyoto [2] (cell cycle stage: mitosis) it was 1.77. For the same sequence, the “solubility in G1/S (log2)” value in the data set on HeLa Kyoto [3] is -0.224. Besides, the melting temperature in the data set with HeLa Kyoto [4] (cell cycle stage: G1/S) amounted to 49 °C; in the data set on HeLa Kyoto [4] (cell cycle stage: mitosis), 50.3 °C.
For the sequence “MGDPERPEAAGLDQDERSSSDTNESEIKSNEEPLLRKSSRRFVIFPIQYPDIWKMYKQAQASFWTAEEVDLSKDLPHWNKLKADEKYFISHILAFFAASDGIVNENLVERFSQEVQVPEARCFYGFQILIENVHSEMYSLLIDTYIRDPKKREFLFNAIETMPYVKKKADWALRWIADRKSTFGERVVAFAAVEGVFFSGSFAAIFWLKKRGLMPGLTFSNELISRDEGLHCDFACLMFQYLVNKPSEERVREIIVDAVKIEQEFLTEALPVGLIGMNCILMKQYIEFVADRLLVELGFSKVFQAENPFDFMENISLEGKTNFFEKRVSEYQRFAVMAETTDNVFTLDADF [RRM2B]”, the “solubility change mitosis (log2)” value with HeLa Kyoto [1] was -0.132. Further, the thermal stability score is -1.2 in the data set with HeLa Kyoto [2] (setting [5]) and 0.292 in the data set with HeLa Kyoto [2] (cell cycle stage: mitosis). In the data set on HeLa Kyoto [3], the “solubility in G1/S (log2)” value was found to be 0.00384. For the same sequence, the melting temperature in the data set on HeLa Kyoto [4] (cell cycle stage: G1/S) amounted to 56.5 °C; in the data set with HeLa Kyoto [4] (cell cycle stage: mitosis) it was 54.2 °C.
Regarding “MGDPSKQDILTIFKRLRSVPTNKVCFDCGAKNPSWASITYGVFLCIDCSGSHRSLGVHLSFIRSTELDSNWSWFQLRCMQVGGNASASSFFHQHGCSTNDTNAKYNSRAAQLYREKIKSLASQATRKHGTDLWLDSCVVPPLSPPPKEEDFFASHVSPEVSDTAWASAIAEPSSLTSRPVETTLENNEGGQEQGPSVEGLNVPTKATLEVSSIIKKKPNQAKKGLGAKKGSLGAQKLANTCFNEIEKQAQAADKMKEQEDLAKVVSKEESIVSSLRLAYKDLEIQMKKDEKMNISGKKNVDSDRLGMGFGNCRSVISHSVTSDMQTIEQESPIMAKPRKKYNDDSDDSYFTSSSSYFDEPVELRSSSFSSWDDSSDSYWKKETSKDTETVLKTTGYSDRPTARRKPDYEPVENTDEAQKKFGNVKAISSDMYFGRQSQADYETRARLERLSASSSISSADLFEEPRKQPAGNYSLSSVLPNAPDMAQFKQGVRSVAGKLSVFANGVVTSIQDRYGS [ARFGAP3]”, the “solubility change mitosis (log2)” value with HeLa Kyoto [1] is -0.125. For the same sequence, the thermal stability score with HeLa Kyoto [2] (setting [5]) is -0.314; with HeLa Kyoto [2] (cell cycle stage: mitosis), 0.332. Besides, in the data set on HeLa Kyoto [3], the “solubility in G1/S (log2)” value worked out at 0.135. Moreover, the melting temperature came to 51.3 °C with HeLa Kyoto [4] (cell cycle stage: G1/S) and 51.4 °C in the data set on HeLa Kyoto [4] (cell cycle stage: mitosis).
For “MGDVLSTHLDDARRQHIAEKTGKILTEFLQFYEDQYGVALFNSMRHEIEGTGLPQAQLLWRKVPLDERIVFSGNLFQHQEDSKKWRNRFSLVPHNYGLVLYENKAAYERQVPPRAVINSAGYKILTSVDQYLELIGNSLPGTTAKSGSAPILKCPTQFPLILWHPYARHYYFCMMTEAEQDKWQAVLQDCIRHCNNGIPEDSKVEGPAFTDAIRMYRQSKELYGTWEMLCGNEVQILSNLVMEELGPELKAELGPRLKGKPQERQRQWIQISDAVYHMVYEQAKARFEEVLSKVQQVQPAMQAVIRTDMDQIITSKEHLASKIRAFILPKAEVCVRNHVQPYIPSILEALMVPTSQGFTEVRDVFFKEVTDMNLNVINEGGIDKLGEYMEKLSRLAYHPLKMQSCYEKMESLRLDGLQQRFDVSSTSVFKQRAQIHMREQMDNAVYTFETLLHQELGKGPTKEELCKSIQRVLERVLKKYDYDSSSVRKRFFREALLQISIPFLLKKLAPTCKSELPRFQELIFEDFARFILVENTYEEVVLQTVMKDILQAVKEAAVQRKHNLYRDSMVMHNSDPNLHLLAEGAPIDWGEEYSNSGGGGSPSPSTPESATLSEKRRRAKQVVSVVQDEEVGLPFEASPESPPPASPDGVTEIRGLLAQGLRPESPPPAGPLLNGAPAGESPQPKAAPEASSPPASPLQHLLPGKAVDLGPPKPSDQETGEQVSSPSSHPALHTTTEDSAGVQTEF [FAM129B]”, in the data set with HeLa Kyoto [1], the “solubility change mitosis (log2)” value is -0.0461. Moreover, the thermal stability score in the data set with HeLa Kyoto [2] (setting [5]) is -0.711; in the data set with HeLa Kyoto [2] (cell cycle stage: mitosis), 2.24. The “solubility in G1/S (log2)” value in the data set on HeLa Kyoto [3] was determined as 0.283. The figures for the melting temperature with HeLa Kyoto [4] (cell cycle stage: G1/S) and in the data set on HeLa Kyoto [4] (cell cycle stage: mitosis) were 51.6 °C and 51.2 °C, respectively.
